± gives the standard deviation.
Experiment: protein stability index of a GFP-peptide fusion (GPS, HEK-293T) (PSI 1-6); higher = more stable
[1] = treatment: DMSO, c terminus: a fixed tail appended
[2] = treatment: MLN4924 1 uM, 8 h, c terminus: a fixed tail appended
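Further: 24-mer peptide tiles fused after GFP, lentivirally expressed, FACS-sorted into six equal bins by GFP/DsRed ratio, decoded by Illumina sequencing, PSI is the read-weighted mean bin number.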

SWSDGMAFCALVHSFFPDAFDYNS [SMTNL2]
protein stability index [1]: 2.95 ± 0.65 | protein stability index [2]: 2.9 ± 0.67

KKGLFLKHVEYEVSSQRFKSSVYR [SNX8]
protein stability index [1]: 2.38 ± 0.14 | protein stability index [2]: 2.91 ± 0.28

LFLFGYKFSGLYILSFTVIMVGFI [SLC35F2]
protein stability index [1]: 3.64 ± 0.12 | protein stability index [2]: 3.18 ± 0.41

PHSAKTEEHTTILRPSYTGLSSSS [CDC14A]
protein stability index [1]: 4.4 ± 0.33 | protein stability index [2]: 4.58 ± 0.2

VSLHQASLGGCSQDFLLFSPEVES [NFE2L1]
protein stability index [1]: 2.06 ± 0.12 | protein stability index [2]: 2.971 ± 0.02

FGERRIPRGRRISVICRSLPEGMG [ALKBH7]
protein stability index [1]: 2.82 ± 0.29 | protein stability index [2]: 2.87 ± 0.26

ERVDGRRLVYKFGKNSSGWKEEEV [ELF3]
protein stability index [1]: 4.11 ± 0.37 | protein stability index [2]: 4.39 ± 0.15

WVRSVSFSHDGLHVASLADDKMVR [WSB1]
protein stability index [1]: 2.66 ± 0.4 | protein stability index [2]: 3.54 ± 0.45

EARSLEHTLPVNRETLKRKVSGNR [ESR2]
protein stability index [1]: 4.95 ± 0.27 | protein stability index [2]: 5.16 ± 0.2

RVIEVLPRGATAAVLAPDSSNASS [SEPHS2]
protein stability index [1]: 4.31 ± 0.19 | protein stability index [2]: 4.42 ± 0.18

AIALANSDSMHIEDVEAVQKLQDV [ESRRG]
protein stability index [1]: 4.53 ± 0.092 | protein stability index [2]: 4.66 ± 0.15

MTKAQESLTLEDVAVDFTWEEWQF [ZNF649]
protein stability index [1]: 3.36 ± 0.12 | protein stability index [2]: 3.74 ± 0.44

EPREFSSRNFGVRNQGNFSVVGTV [ZC2HC1C]
protein stability index [1]: 3.06 ± 0.31 | protein stability index [2]: 3.01 ± 0.24

NCIGIRDFALHYCLHHVHYLATEY [GAN]
protein stability index [1]: 3.1 ± 0.51 | protein stability index [2]: 3.32 ± 0.33

KAEILESVIKNYEDHFPLLFSEAS [MAGEA10]
protein stability index [1]: 3.06 ± 0.38 | protein stability index [2]: 3.19 ± 0.51

GNKQWWFGGGCDLTPTYLNQEDAI [CPOX]
protein stability index [1]: 3.12 ± 0.19 | protein stability index [2]: 3.33 ± 0.23

ARSIAEQAHELAYDPNYMSPFAQF [PPTC7]
protein stability index [1]: 2.91 ± 0.35 | protein stability index [2]: 3.08 ± 0.27

QLENEQSQENSINPIQKEEDEGVD [SPANXN3]
protein stability index [1]: 5.56 ± 0.22 | protein stability index [2]: 5.67 ± 0.2

GLGGGSSRTSCRLSGGLGAGSCRL [KRT17]
protein stability index [1]: 2.41 ± 0.13 | protein stability index [2]: 2.35 ± 0.41

GYSMNFNMSSSRGPLPVKRGPPPR [RBMX]
protein stability index [1]: 3.16 ± 0.23 | protein stability index [2]: 3.82 ± 0.72

ELSAIGSDTTPLPSWAALNSSTWG [SNX8]
protein stability index [1]: 2.94 ± 0.36 | protein stability index [2]: 2.75 ± 0.18

NWIELLSGETWNPLKLHYQLRNVR [GOLPH3]
protein stability index [1]: 2.43 ± 0.73 | protein stability index [2]: 2.36 ± 0.61

LSILRHQNLLKELQDLALQGAKER [CHGA]
protein stability index [1]: 3.02 ± 0.087 | protein stability index [2]: 3.08 ± 0.27

HLEEPGETQNAFLNERKQASAIKK [CHGB]
protein stability index [1]: 5.11 ± 0.14 | protein stability index [2]: 5.2 ± 0.28

VNSDYETYMSADDLRINLWNFEIT [PPP2R2B]
protein stability index [1]: 2.19 ± 0.23 | protein stability index [2]: 2.4 ± 0.23

EKKESLGAAQEALSIQLQPKETQP [ZNF232]
protein stability index [1]: 5.35 ± 0.35 | protein stability index [2]: 5.5 ± 0.19

EDSNWEKSPDNEDSGDSKDIRLTL [GOLPH3L]
protein stability index [1]: 5.37 ± 0.16 | protein stability index [2]: 5.37 ± 0.12

FLWGPRALVETSYVKVLHHMVKIS [MAGEA3]
protein stability index [1]: 2.01 ± 0.35 | protein stability index [2]: 2.64 ± 0.71

TGWFGGGFTSYLGFGDEDTGLELI [MIA2]
protein stability index [1]: 2.07 ± 0.35

AAPAAKTRKQAAKKVAPLMAKAIR [ELOA2]
protein stability index [1]: 3.78 ± 0.24 | protein stability index [2]: 4.16 ± 0.21

QYYRTIEELQNKILTATVDNANIL [KRT17]
protein stability index [1]: 2.22 ± 0.2 | protein stability index [2]: 2.23 ± 0.2

VSAGGHTLSRPPPAQVPREVLKVQ [TFE3]
protein stability index [1]: 3.95 ± 0.33 | protein stability index [2]: 4.21 ± 0.11

CTFSLTHPANRSCRETGSFLDLFR [SLC22A15]
protein stability index [1]: 2.31 ± 0.33 | protein stability index [2]: 2.14 ± 0.45

QGDPAFPEMNGNGAVAPMDFTTAA [NOL4L]
protein stability index [1]: 5.09 ± 0.2 | protein stability index [2]: 4.98 ± 0.16

DDKTDKRIFTFICKDSESNKHLCY [GULP1]
protein stability index [1]: 2.47 ± 0.45 | protein stability index [2]: 2.51 ± 0.26

AYEFNPELVLVSAGFDAARGDPLG [HDAC6]
protein stability index [1]: 3.11 ± 0.58 | protein stability index [2]: 3.58 ± 0.23

NMCMGRTSRGKLGGQDSFESIESY [ETS1]
protein stability index [1]: 3.612 ± 0.034 | protein stability index [2]: 3.72 ± 0.49

SLISLSNNTGKNLELKFVSSLRRQ [TENT5D]
protein stability index [1]: 2.34 ± 0.081 | protein stability index [2]: 2.58 ± 0.098

SPGIGAVYLANQAKNQSDEAKEAK [RTP4]
protein stability index [1]: 5.28 ± 0.22 | protein stability index [2]: 5.28 ± 0.12

FAKLEKLTILAKRKSLFDDKAVEI [STX5]
protein stability index [1]: 2.47 ± 0.23 | protein stability index [2]: 2.48 ± 0.53

LQEPGEPQGPPASPSCPEEALAAT [PXN]
protein stability index [1]: 5.44 ± 0.22 | protein stability index [2]: 5.278 ± 0.023

FDVKNDRYIVNGSHEANKLQDMLD [EIF5]
protein stability index [1]: 3.97 ± 0.11 | protein stability index [2]: 3.81 ± 0.25

VVGNWQYFFPVIFSKASDSLQLVF [MAGEA6]
protein stability index [1]: 3.21 ± 0.34 | protein stability index [2]: 3.32 ± 0.63

TEITELRRTLQGLEIELQSQLSMK [KRT13]
protein stability index [1]: 2.78 ± 0.27 | protein stability index [2]: 2.85 ± 0.18

EVEGVKNIMTQNVERILARGENLE [VAMP8]
protein stability index [1]: 4.68 ± 0.15 | protein stability index [2]: 4.46 ± 0.16

LKTFVKQTDHIKGIRQITSDDFCT [GFOD1]
protein stability index [1]: 3.29 ± 0.4 | protein stability index [2]: 3.26 ± 0.23

FSTCGSHLTVVAIFYGSGIFNYMR [OR3A1]
protein stability index [1]: 2.89 ± 0.56 | protein stability index [2]: 2.94 ± 0.49

SDINSIRRILDELTLCKSDLESQV [KRT34]
protein stability index [1]: 3.34 ± 0.2 | protein stability index [2]: 3.1 ± 0.37

SLKEELMCLKKNHEEEVSVLRCQL [KRT36]
protein stability index [1]: 3.09 ± 0.31 | protein stability index [2]: 3.23 ± 0.4

LKLVSFSKLCTSYSHSSTRDGRRD [GOSR1]
protein stability index [1]: 2.81 ± 0.3 | protein stability index [2]: 2.79 ± 0.35

YDSFDSEDYPAALPNHKPKGTFKD [ETS1]
protein stability index [1]: 5.05 ± 0.17 | protein stability index [2]: 4.83 ± 0.22

EENELTSLAEDLLGLTDPNGGLA [TRADD]
protein stability index (treatment: DMSO, c terminus: native): 5.14 ± 0.19 | protein stability index (treatment: MLN4924 1 uM, 8 h, c terminus: native): 5.06 ± 0.43

ESKDQGKTLALARTMDIPRSVQNF [ALDH8A1]
protein stability index [1]: 4.01 ± 0.15 | protein stability index [2]: 4.18 ± 0.23

CFSTGLSRRVLLTNVVTGHRQSFG [DCAF4]
protein stability index [1]: 2.1 ± 0.18 | protein stability index [2]: 2.38 ± 0.21

NREACRDLSGRRLRDVNHEKAMAE [SDE2]
protein stability index [1]: 5.01 ± 0.12 | protein stability index [2]: 4.87 ± 0.32

QQTKLEAEKLKVQALKDRGLSIPR [LSM1]
protein stability index [1]: 4.12 ± 0.16 | protein stability index [2]: 4.21 ± 0.075

RCNTTCGRGVKKRLVLCMELANGK [ADAMTSL2]
protein stability index [1]: 3.22 ± 0.21 | protein stability index [2]: 3 ± 0.13

QRISCFQSTVKCLTVLQRLDVWLS [WDR41]
protein stability index [1]: 2.45 ± 0.35 | protein stability index [2]: 2.41 ± 0.44

TIEECCRKQKQELCEKFDYLYGIL [TRIM55]
protein stability index [1]: 1.88 ± 0.54 | protein stability index [2]: 2.41 ± 0.85

EGLLNTYQELLGLSFEQMTDAHVW [NLN]
protein stability index [1]: 2.41 ± 0.32 | protein stability index [2]: 2.49 ± 0.38

DTREEKRFLGEGHHRVQENQMDKA [CHGB]
protein stability index [1]: 5.25 ± 0.13 | protein stability index [2]: 5.16 ± 0.25

SEPIRRAGKSGTSTPTTPGSTAIT [MAP2]
protein stability index [1]: 4.66 ± 0.25 | protein stability index [2]: 4.65 ± 0.2

RASQREYEELRNSERAEVQRLEEQ [RSPH3]
protein stability index [1]: 5.43 ± 0.27 | protein stability index [2]: 5.3 ± 0.2

EDEKQRLQNEVRQLTEKLARVNEN [SSNA1]
protein stability index [1]: 4.99 ± 0.35 | protein stability index [2]: 5.17 ± 0.24

ETNEEDKTLQEIYRKYRKLIESEL [FBXO39]
protein stability index [1]: 3.02 ± 0.44 | protein stability index [2]: 3.4 ± 0.34

Reference: the supplement of paper PMC10567573
